Experiment [1] concerns the target T1, GST-CARM1 fusion protein (glutathione S-transferase tagged co-activator associated arginine methyltransferase … (UniProt Q86X55 1-608)).
T1 construct: Expressed in E. coli BL-21, purified on glutathione sepharose; also called GST tagged CARM1; not shown: glutathione S-transferase (GST) tag
T1 sequence (looked up): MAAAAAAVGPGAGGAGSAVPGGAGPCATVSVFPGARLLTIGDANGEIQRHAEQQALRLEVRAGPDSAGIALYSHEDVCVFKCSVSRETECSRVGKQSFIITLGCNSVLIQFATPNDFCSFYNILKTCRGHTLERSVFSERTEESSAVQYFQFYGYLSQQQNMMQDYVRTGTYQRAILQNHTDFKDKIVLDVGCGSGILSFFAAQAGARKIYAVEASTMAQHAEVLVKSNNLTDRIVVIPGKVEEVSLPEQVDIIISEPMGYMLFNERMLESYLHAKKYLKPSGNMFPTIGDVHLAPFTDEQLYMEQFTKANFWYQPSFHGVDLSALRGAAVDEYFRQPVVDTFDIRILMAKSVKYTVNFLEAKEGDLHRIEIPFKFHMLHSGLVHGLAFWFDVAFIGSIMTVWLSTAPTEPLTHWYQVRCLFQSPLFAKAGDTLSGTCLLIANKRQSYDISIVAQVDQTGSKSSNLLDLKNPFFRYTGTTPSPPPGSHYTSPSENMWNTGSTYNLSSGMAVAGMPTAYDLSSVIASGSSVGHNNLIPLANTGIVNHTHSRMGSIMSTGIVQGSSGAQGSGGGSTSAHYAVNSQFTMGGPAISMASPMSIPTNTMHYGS
The experiment in a line: in vitro interaction assay, in vitro translated Flag-PKM2 truncation with GST-CARM1. Here is the method:
Flag-tagged full length PKM2 and its truncations constructs were translated by T7 Quick Coupled Translation/Transcription system (Promega). […] The beads were washed 4 times with binding buffer, and recombinant proteins were eluted with 500 μg/ml 3× Flag peptides. Samples were analyzed by SDS-PAGE and Western blotting.

For a further experiment, the target named is T2, endogenous HSPA9 (human, UniProt P38646 47-679).
T2 construct: Endogenous protein co-precipitated from cell lysate
The experiment is described as follows: anti-Flag co-immunoprecipitation from MCF7 cell lysates, Western blot. In general terms: Immunoblotting shows a protein as a band on a membrane.

The target of experiment [2] is T3, endogenous IP3R3 (inositol 1,4,5-trisphosphate receptor 3) (human, UniProt Q14573 1-2671).
T3 construct: Endogenous protein co-precipitated from cell lysate; also called ITPR3
The experiment in a line: anti-Flag M2 resin immunoprecipitation from MCF7 cells, Western blot.

Experiment [3] concerns the target T4, endogenous IP3R1 (inositol 1,4,5-trisphosphate receptor 1) (human, UniProt Q14643 1-2758, limits assumed).
T4 construct: Endogenous protein co-precipitated from cell lysate; also called ITPR1
Described as above.

T2 sequence (P38646 47-679 limits assumed): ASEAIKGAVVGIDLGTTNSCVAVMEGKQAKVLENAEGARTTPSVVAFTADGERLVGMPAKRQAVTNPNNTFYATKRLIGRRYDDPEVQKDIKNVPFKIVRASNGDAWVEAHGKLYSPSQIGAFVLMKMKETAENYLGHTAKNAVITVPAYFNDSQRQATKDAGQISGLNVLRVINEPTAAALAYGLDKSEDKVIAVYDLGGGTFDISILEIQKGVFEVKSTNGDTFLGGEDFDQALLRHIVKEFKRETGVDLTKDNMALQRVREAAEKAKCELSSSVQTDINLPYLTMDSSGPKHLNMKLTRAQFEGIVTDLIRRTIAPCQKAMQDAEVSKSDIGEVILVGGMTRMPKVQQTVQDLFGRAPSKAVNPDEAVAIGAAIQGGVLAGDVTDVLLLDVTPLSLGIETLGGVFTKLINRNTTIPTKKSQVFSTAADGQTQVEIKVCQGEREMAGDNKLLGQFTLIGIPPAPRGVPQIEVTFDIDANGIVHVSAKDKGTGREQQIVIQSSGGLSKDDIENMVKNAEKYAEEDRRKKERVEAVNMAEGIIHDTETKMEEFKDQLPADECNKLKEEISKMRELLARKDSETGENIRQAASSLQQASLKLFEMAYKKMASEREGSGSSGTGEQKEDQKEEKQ
T4 sequence (Q14643 whole entry): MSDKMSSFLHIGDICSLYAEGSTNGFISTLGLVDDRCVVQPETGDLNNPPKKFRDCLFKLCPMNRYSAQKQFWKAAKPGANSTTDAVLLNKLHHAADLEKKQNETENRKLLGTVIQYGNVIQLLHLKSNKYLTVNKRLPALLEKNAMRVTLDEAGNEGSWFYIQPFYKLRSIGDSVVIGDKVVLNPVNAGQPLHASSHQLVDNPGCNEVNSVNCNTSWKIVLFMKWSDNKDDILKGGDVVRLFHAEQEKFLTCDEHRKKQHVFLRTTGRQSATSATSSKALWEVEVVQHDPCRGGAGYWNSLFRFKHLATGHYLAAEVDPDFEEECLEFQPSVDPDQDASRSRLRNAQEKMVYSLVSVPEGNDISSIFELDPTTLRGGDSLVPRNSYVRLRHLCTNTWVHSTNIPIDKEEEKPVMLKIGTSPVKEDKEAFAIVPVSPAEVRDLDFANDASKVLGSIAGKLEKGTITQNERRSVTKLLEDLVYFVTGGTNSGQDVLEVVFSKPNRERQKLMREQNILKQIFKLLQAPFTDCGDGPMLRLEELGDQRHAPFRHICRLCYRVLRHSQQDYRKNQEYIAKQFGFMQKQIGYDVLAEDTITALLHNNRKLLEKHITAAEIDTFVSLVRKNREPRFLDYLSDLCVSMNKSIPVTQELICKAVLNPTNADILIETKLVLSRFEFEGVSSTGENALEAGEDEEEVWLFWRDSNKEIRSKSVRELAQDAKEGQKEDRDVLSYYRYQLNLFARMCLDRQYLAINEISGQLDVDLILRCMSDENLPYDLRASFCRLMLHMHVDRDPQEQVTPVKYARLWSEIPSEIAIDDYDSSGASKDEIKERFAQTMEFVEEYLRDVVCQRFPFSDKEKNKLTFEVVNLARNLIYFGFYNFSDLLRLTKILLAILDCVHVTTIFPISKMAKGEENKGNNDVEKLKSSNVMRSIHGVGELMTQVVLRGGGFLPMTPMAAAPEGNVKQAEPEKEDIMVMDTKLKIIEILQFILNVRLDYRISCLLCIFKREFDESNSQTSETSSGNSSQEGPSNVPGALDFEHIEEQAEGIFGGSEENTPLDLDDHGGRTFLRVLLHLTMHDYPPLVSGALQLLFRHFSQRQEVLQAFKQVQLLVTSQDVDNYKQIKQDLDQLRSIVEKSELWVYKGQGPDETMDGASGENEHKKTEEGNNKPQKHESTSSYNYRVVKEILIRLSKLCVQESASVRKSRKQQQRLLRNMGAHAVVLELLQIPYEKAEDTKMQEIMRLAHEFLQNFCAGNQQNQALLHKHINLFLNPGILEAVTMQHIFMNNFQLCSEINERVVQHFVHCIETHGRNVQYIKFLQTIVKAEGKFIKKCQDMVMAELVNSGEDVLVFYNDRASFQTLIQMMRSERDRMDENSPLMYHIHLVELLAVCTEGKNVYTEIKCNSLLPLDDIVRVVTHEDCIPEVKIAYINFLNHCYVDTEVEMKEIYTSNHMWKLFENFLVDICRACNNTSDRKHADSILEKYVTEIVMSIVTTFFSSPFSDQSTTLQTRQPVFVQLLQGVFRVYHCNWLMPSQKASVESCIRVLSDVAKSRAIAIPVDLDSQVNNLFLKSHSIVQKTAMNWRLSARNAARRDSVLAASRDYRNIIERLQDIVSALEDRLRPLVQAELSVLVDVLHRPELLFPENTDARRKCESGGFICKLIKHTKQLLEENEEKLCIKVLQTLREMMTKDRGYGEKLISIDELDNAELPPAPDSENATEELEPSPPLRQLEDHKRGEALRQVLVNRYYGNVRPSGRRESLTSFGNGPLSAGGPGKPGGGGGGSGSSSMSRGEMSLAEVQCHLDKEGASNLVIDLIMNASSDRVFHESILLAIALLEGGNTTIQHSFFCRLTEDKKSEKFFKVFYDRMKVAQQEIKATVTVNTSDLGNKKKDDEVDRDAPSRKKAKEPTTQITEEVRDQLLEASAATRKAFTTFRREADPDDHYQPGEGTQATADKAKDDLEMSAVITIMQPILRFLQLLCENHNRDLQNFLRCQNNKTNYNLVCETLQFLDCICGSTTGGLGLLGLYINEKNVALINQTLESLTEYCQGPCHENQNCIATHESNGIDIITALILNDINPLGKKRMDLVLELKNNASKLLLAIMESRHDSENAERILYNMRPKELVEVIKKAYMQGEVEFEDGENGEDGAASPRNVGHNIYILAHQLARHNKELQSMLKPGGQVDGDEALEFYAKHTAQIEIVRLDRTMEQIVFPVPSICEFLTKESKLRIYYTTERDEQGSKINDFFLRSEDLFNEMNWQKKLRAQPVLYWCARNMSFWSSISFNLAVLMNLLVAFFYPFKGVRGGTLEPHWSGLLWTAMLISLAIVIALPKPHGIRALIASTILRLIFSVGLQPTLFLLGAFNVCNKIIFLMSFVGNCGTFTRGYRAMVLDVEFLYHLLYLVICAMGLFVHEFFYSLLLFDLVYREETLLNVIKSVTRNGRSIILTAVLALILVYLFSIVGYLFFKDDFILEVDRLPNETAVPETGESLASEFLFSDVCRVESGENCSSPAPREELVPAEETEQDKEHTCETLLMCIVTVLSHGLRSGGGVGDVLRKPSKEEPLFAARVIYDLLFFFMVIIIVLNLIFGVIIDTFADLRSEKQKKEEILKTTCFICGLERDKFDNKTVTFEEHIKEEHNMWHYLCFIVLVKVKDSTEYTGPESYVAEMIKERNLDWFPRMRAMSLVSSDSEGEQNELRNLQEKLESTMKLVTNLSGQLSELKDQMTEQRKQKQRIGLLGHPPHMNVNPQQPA

B1: truncated Flag-PKM2 with truncation of both the C domain and the N/A1 domain (enzyme)
chain: not shown
notes: In vitro translated; also called 48 (as printed, probably delta-8); not shown: Flag tag
B1: the binding result in experiment [1] was “no binding”.

B2: Flag-tagged PKM1 (pyruvate kinase M1) (enzyme)
chain: not shown
notes: Purified recombinant protein in the GST pull-down; expressed in MCF7 or HEK293T PKM2 KO cells in the co-immunoprecipitations; also called Flag-PKM1; recombinant PKM1; not shown: Flag tag
Consider B2, for which the binding result in the experiment with endogenous HSPA9 is on record as “no binding”.

B3: Flag-tagged PKM2^mut (R445K, R447K and R455K), methylation-defective PKM2 (enzyme)
chain: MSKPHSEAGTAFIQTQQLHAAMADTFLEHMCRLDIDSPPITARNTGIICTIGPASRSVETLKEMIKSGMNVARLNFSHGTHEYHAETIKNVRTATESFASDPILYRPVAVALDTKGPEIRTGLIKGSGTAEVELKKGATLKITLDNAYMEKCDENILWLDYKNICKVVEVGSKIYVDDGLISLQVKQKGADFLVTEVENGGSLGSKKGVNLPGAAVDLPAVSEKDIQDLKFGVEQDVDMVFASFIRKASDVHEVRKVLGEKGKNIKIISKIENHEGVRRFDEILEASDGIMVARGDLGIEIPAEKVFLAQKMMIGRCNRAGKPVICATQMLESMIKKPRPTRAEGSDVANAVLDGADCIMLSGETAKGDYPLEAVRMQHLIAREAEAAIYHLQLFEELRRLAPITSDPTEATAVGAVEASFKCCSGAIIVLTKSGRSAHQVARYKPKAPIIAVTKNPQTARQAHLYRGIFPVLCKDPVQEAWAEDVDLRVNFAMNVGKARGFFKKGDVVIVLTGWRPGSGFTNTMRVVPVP
notes: Stably expressed in MCF7 (and MDA-MB-231) PKM2 KO cells; precipitated with anti-Flag M2 resin; also called PKM2 R445/447/455K; not shown: left out
B3: the binding result in experiment [2] and in experiment [3] was “no binding” throughout.

(Values after patent US20200276130A1 (WISCONSIN ALUMNI RESEARCH FOUNDATION, published 2020).)
